Consider 38 variants from PMC7954794 (2021).

The chains are these.
B1: S. cerevisiae Abp1 (full length; SH3 domain 535-592 mutated) / Hua2 (parent complex)
chain 1: MALEPIDYTTHSREIDAEYLKIVRGSDPDTTWLIISPNAKKEYEPESTGSSFHDFLQLFDETKVQYGLARVSPPGSDVEKIIIIGWCPDSAPLKTRASFAANFAAVANNLFKGYHVQVTARDEDDLDENELLMKISNAAGARYSIQTSSKQQGKASTPPVKKSFTPSKSPAPVSKKEPVKTPSPAPAAKISSRVNDNNDDDDWNEPELKERDFDQAPLKPNQSSYKPIGKIDLQKVIAEEKAKEDPRLVQKPTAAGSKIDPSSDIANLKNESKLKRDSEFNSFLGTTKPPSMTESSLKNDDDKVIKGFRNEKSPAQLWAERKAKQNSGNAETKAEAPKPEVPEDEPEGEPDVKDLKSKFEGLAASEKEEEEMENKFAPPPKKSEPTIISPKPFSKPQEPVKAEEAEQPKTDYKKIGNPLPGMHIEADNEEEPEENDDDWDDDEDEAAQPPLPSRNVASGAPVQKEEPEQEEIAPSLPSRNSIPAPKQEEAPEQAPEEEIEEEAEEAAPQLPSRSSAAPPPPPRRATPEKKPKENPWATAEYDYDAAEDNELTFVENDKIINIEFVDDDWWLGELEKDGSKGLFPSNYVSLGN
chain 2: MQQTKFGKMYLDHDSVVEYSEDEIVEADRITLGYKKRLSMIENQMRHLLEDFSLDVQQIEPILADLQKYYDAFLQLLQKRNKSLQCKRSTHQPVPSPMNSQTSTNAKVNLSGKLMKFQLNSVQKFDEENILRILQNKIEFEHYFQIDKGKKQKVLLLAVYQCLNGPTRLHKVLNIEGIIHNNSIRTILGKQVSSSKWTVFLYDVKLVLLAHRQDVPNLETSKMIVRYGDLFPCALYFKDHTAY

Variants of B1 are the subject of this test. Description: DHFR protein-fragment complementation in yeast (Abp1-DHFR F[1,2] x partner-DHFR F[3]), deep mutational scanning, second methotrexate selection vs reference; S. cerevisiae, DHFR-PCA selection in liquid with methotrexate at 30 C, two 72 h selections (the score uses the second); reference = the pre-selection culture.
chain 1 I560V: the screen value is 0.522 DMS score: mean over two replicates of log2(f_test/f_ref + 0.5)/ln 2, minus the synonymous-codon median (not a log2 ….

As to chain 1 I560L, the screen value is -0.196 DMS score: mean over two replicates of log2(f_test/f_ref + 0.5)/ln 2, minus the synonymous-codon median (not a log2 ….

In the case of chain 1 T552R, the screen value is -1.02 DMS score: mean over two replicates of log2(f_test/f_ref + 0.5)/ln 2, minus the synonymous-codon median (not a log2 ….

On to chain 1 T538S, for which the screen value was -0.596 DMS score: mean over two replicates of log2(f_test/f_ref + 0.5)/ln 2, minus the synonymous-codon median (not a log2 ….

In the case of chain 1 T538Q, the screen value is -0.259 DMS score: mean over two replicates of log2(f_test/f_ref + 0.5)/ln 2, minus the synonymous-codon median (not a log2 ….

As to chain 1 V554W, the screen value was -0.15 DMS score: mean over two replicates of log2(f_test/f_ref + 0.5)/ln 2, minus the synonymous-codon median (not a log2 ….

chain 1 V554A: the screen value was 0.779 DMS score: mean over two replicates of log2(f_test/f_ref + 0.5)/ln 2, minus the synonymous-codon median (not a log2 ….

Consider chain 1 V554T, for which the screen value is 0.502 DMS score: mean over two replicates of log2(f_test/f_ref + 0.5)/ln 2, minus the synonymous-codon median (not a log2 ….

With chain 1 V554S, the screen value was 0.912 DMS score: mean over two replicates of log2(f_test/f_ref + 0.5)/ln 2, minus the synonymous-codon median (not a log2 ….

With chain 1 L574K, the screen value is 0.584 DMS score: mean over two replicates of log2(f_test/f_ref + 0.5)/ln 2, minus the synonymous-codon median (not a log2 ….

Consider chain 1 L574V, for which the screen value is -1.03 DMS score: mean over two replicates of log2(f_test/f_ref + 0.5)/ln 2, minus the synonymous-codon median (not a log2 ….

For chain 1 L574R, the screen value was 0.641 DMS score: mean over two replicates of log2(f_test/f_ref + 0.5)/ln 2, minus the synonymous-codon median (not a log2 ….

As to chain 1 W536C, the screen value is -0.449 DMS score: mean over two replicates of log2(f_test/f_ref + 0.5)/ln 2, minus the synonymous-codon median (not a log2 ….

In the case of chain 1 W536Q, the screen value is -0.538 DMS score: mean over two replicates of log2(f_test/f_ref + 0.5)/ln 2, minus the synonymous-codon median (not a log2 ….

For the variant chain 1 S585A, the screen value is 1.11 DMS score: mean over two replicates of log2(f_test/f_ref + 0.5)/ln 2, minus the synonymous-codon median (not a log2 ….

For chain 1 S585H, the screen value is -2.79 DMS score: mean over two replicates of log2(f_test/f_ref + 0.5)/ln 2, minus the synonymous-codon median (not a log2 ….

In the case of chain 1 S585K, the screen value was -2.89 DMS score: mean over two replicates of log2(f_test/f_ref + 0.5)/ln 2, minus the synonymous-codon median (not a log2 ….

In the case of chain 1 S585V, the screen value is -0.716 DMS score: mean over two replicates of log2(f_test/f_ref + 0.5)/ln 2, minus the synonymous-codon median (not a log2 ….

Consider chain 1 G591R, for which the screen value is -0.62 DMS score: mean over two replicates of log2(f_test/f_ref + 0.5)/ln 2, minus the synonymous-codon median (not a log2 ….

Consider chain 1 G591A, for which the screen value was 0.673 DMS score: mean over two replicates of log2(f_test/f_ref + 0.5)/ln 2, minus the synonymous-codon median (not a log2 ….

Regarding chain 1 G591N, the screen value is 0.941 DMS score: mean over two replicates of log2(f_test/f_ref + 0.5)/ln 2, minus the synonymous-codon median (not a log2 ….

Turning to chain 1 G591E, the screen value was 1.01 DMS score: mean over two replicates of log2(f_test/f_ref + 0.5)/ln 2, minus the synonymous-codon median (not a log2 ….

On to chain 1 G591P, for which the screen value is 0.961 DMS score: mean over two replicates of log2(f_test/f_ref + 0.5)/ln 2, minus the synonymous-codon median (not a log2 ….

chain 1 E575I: the screen value was -0.328 DMS score: mean over two replicates of log2(f_test/f_ref + 0.5)/ln 2, minus the synonymous-codon median (not a log2 ….

With chain 1 L571D, the screen value is -0.576 DMS score: mean over two replicates of log2(f_test/f_ref + 0.5)/ln 2, minus the synonymous-codon median (not a log2 ….

As to chain 1 I562V, the screen value was 0.21 DMS score: mean over two replicates of log2(f_test/f_ref + 0.5)/ln 2, minus the synonymous-codon median (not a log2 ….

For chain 1 D548F, the screen value is -0.0924 DMS score: mean over two replicates of log2(f_test/f_ref + 0.5)/ln 2, minus the synonymous-codon median (not a log2 ….

Consider chain 1 D548E, for which the screen value was -0.357 DMS score: mean over two replicates of log2(f_test/f_ref + 0.5)/ln 2, minus the synonymous-codon median (not a log2 ….

Consider chain 1 D548S, for which the screen value is 0.431 DMS score: mean over two replicates of log2(f_test/f_ref + 0.5)/ln 2, minus the synonymous-codon median (not a log2 ….

Regarding chain 1 D568F, the screen value is -2.94 DMS score: mean over two replicates of log2(f_test/f_ref + 0.5)/ln 2, minus the synonymous-codon median (not a log2 ….

As to chain 1 P535L, the screen value was 0.129 DMS score: mean over two replicates of log2(f_test/f_ref + 0.5)/ln 2, minus the synonymous-codon median (not a log2 ….

Take chain 1 P535I: the screen value is 1.56 DMS score: mean over two replicates of log2(f_test/f_ref + 0.5)/ln 2, minus the synonymous-codon median (not a log2 ….

Regarding chain 1 P535K, the screen value is -0.44 DMS score: mean over two replicates of log2(f_test/f_ref + 0.5)/ln 2, minus the synonymous-codon median (not a log2 ….

Take chain 1 P535R: the screen value was 0.0703 DMS score: mean over two replicates of log2(f_test/f_ref + 0.5)/ln 2, minus the synonymous-codon median (not a log2 ….

For chain 1 P535A, the screen value was 1.23 DMS score: mean over two replicates of log2(f_test/f_ref + 0.5)/ln 2, minus the synonymous-codon median (not a log2 ….

As for chain 1 P535T, the screen value was 0.611 DMS score: mean over two replicates of log2(f_test/f_ref + 0.5)/ln 2, minus the synonymous-codon median (not a log2 ….

With chain 1 I559L, the screen value is -0.0963 DMS score: mean over two replicates of log2(f_test/f_ref + 0.5)/ln 2, minus the synonymous-codon median (not a log2 ….

On to chain 1 Y587R, for which the screen value is -2.81 DMS score: mean over two replicates of log2(f_test/f_ref + 0.5)/ln 2, minus the synonymous-codon median (not a log2 ….
